Experimental data as given in publication PMC6722581.
pKd: −log10 of the molar value.

How the values were obtained:
[1] = molecular target: SLAM (Canis lupus familiaris) (UniProt Q95MM9); conditions: cited from earlier work
[2] = molecular target: head domain of measles virus hemagglutinin, Edmonston vaccine strain (measles virus, Edmonston strain) (UniProt P08362); assay: SPR
[3] = molecular target: head domain of measles virus hemagglutinin, IC-B wild-type strain (measles virus, IC-B strain) (UniProt Q786F2); assay: SPR
Chain of UniProt Q786F2 (Q786F2 149-617): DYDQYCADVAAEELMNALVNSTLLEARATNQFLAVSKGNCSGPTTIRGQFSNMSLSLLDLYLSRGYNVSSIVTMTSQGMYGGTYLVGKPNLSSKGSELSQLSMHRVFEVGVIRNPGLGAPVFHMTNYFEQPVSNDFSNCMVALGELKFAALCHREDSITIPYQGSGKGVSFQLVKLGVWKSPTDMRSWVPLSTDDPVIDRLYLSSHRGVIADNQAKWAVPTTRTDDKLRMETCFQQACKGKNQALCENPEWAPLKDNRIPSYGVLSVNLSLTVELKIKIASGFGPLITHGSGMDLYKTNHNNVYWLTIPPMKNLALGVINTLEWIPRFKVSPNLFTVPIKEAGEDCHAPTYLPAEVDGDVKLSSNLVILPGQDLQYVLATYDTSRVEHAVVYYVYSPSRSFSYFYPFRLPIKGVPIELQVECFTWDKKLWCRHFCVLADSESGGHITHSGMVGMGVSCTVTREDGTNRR

Chain of UniProt P08362 (P08362 149-617): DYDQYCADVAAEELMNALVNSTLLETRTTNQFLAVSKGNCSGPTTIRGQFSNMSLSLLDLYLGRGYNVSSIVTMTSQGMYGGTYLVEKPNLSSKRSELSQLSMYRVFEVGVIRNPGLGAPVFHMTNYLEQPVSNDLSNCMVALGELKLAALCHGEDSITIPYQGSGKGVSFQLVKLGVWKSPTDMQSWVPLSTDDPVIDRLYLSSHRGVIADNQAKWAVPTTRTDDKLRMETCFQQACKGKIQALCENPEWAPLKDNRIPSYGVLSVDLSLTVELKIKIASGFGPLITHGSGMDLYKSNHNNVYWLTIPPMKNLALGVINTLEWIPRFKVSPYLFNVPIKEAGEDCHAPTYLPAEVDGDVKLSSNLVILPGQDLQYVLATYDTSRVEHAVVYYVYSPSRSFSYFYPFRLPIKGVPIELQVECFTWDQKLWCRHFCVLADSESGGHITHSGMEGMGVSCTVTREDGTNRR
Chain of UniProt Q95MM9 (Q95MM9 27-342): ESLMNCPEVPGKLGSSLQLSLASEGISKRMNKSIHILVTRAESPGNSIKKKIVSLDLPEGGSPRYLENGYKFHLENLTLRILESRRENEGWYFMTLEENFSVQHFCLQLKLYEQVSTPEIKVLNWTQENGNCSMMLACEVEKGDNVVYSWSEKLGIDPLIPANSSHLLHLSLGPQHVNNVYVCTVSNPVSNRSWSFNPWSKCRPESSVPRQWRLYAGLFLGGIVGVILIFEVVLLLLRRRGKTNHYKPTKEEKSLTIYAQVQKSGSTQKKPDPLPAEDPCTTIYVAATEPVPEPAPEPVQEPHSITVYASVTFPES

Substance	pKd [1]	pKd [2]	koff [2] [s⁻¹]	kon [2] [M⁻¹ s⁻¹]	pKd [3]	koff [3] [s⁻¹]	kon [3] [M⁻¹ s⁻¹]
CDV-A75/17 hemagglutinin (from UniProt Q65999)	5.10						
soluble SLAM ectodomain (V-set and C2) from cotton-top tamarin (domain or fragment)		7.33	0.000952	20400	6.61	0.00241	9890
